Laboratory results as given in patent US20170209529A1 (BRIGHAM AND WOMEN S HOSPITAL, published 2017).
Where “and” joins values, the source holds several entries; their conditions need not be identical. Identical values can stand only once. Like-named read-outs stand apart in the source and are kept apart here. Bridge positions count the residues as written; N and C are the ends.

What was measured:
[1] = molecular target: T1, soluble human FcRn (shFcRn) (human, UniProt P55899 24-297; P61769 21-119); experiment: SPR (Biacore), immobilized shFcRn, pH 6
T1 construct: For crystallography it was expressed in CHOK1SV cells and deglycosylated with PNGaseF; biotinylated for phage selection; also called hFcRn/β2m; FcRn-biotin
T1 sequence (P55899 24-297 limits assumed, chain 1 of 2): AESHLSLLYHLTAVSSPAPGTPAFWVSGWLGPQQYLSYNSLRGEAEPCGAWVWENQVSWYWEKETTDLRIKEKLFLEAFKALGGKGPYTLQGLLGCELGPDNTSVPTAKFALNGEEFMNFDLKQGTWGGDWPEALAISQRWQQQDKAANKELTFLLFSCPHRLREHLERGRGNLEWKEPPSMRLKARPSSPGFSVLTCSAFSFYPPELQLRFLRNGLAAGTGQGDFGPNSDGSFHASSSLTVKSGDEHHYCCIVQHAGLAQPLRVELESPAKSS
T1 sequence (P61769 21-119 limits assumed, chain 2 of 2): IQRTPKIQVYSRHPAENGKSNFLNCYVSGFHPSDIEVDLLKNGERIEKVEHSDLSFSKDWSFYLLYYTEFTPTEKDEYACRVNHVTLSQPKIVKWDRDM

[2] = molecular target: T1, soluble human FcRn (shFcRn); experiment: SPR (Biacore), pH 6.0
Method: (§1) SPR analyses: SPR analyses were conducted using a Biacore 3000 or T100 instrument. Research-grade CMS sensor chips and all coupling reagents for immobilization were purchased from Biacore. All proteins were cross-linked to the dextran surface of a CM5 sensor chip by standard amine coupling chemistry as recommended by Biacore. […] Binding experiments were performed at pH 6.0 or 7.4 using 50 mM phosphate, 100 mM sodium chloride and 0.01% surfactant P20. […] Bound albumin protein was then allowed to dissociate from the chip for 5 minutes with running buffer. Any remaining albumin was removed from the chip with a 60 second injection (2 cycles) of pH 8.0 Tris-HCl regeneration buffer (1 M Tris pH 8.0) at 25 μL/min flow rate. The binding responses recorded near the end of the association phase were plotted as a function of concentration. Equilibrium dissociation constants (KD), were derived from sensorgrams using the 1:1 binding model of BlAevaluation software 4.1.

[3] = molecular target: T1, soluble human FcRn (shFcRn); experiment: phage display hit; X-ray crystallography
[4] = molecular target: T1, soluble human FcRn (shFcRn); experiment: SPR (Biacore), immobilized shFcRn, pH 7.4
[5] = molecular target: T1, soluble human FcRn (shFcRn); experiment: SPR (Biacore), pH 7.4
Method: as §1

[6] = molecular target: T1, soluble human FcRn (shFcRn); experiment: SPR (Biacore), Kd pH 7.4 divided by Kd pH 6.0
[7] = molecular target: T1, soluble human FcRn (shFcRn); experiment: SPR (Biacore), immobilized shFcRn, pH 6, steady-state fit
[8] = molecular target: T1, soluble human FcRn (shFcRn); experiment: as above; remark: listed apart in the source
[9] = molecular target: T1, soluble human FcRn (shFcRn); experiment: SPR (Biacore), pH 6.0; pH 6.0
[10] = molecular target: T1, soluble human FcRn (shFcRn); experiment: SPR (Biacore), immobilized shFcRn, pH 7.4; remark: listed apart in the source
[11] = molecular target: T1, soluble human FcRn (shFcRn); experiment: SPR (Biacore), Kd pH 7.4 divided by Kd pH 6.0; remark: listed apart in the source
[12] = molecular target: T1, soluble human FcRn (shFcRn); experiment: SPR (Biacore), immobilized shFcRn, pH 6; data fit column: aggregates/non specific
[13] = molecular target: T1, soluble human FcRn (shFcRn); experiment: method not stated in the sentence (Example 5, description of peptides); approximate KD in the Example 5 text, pH and method not stated
[14] = molecular target: T1, soluble human FcRn (shFcRn); experiment: SPR (Biacore), immobilized shFcRn, pH 6, steady-state fit; pH 6; first of two values in the cell, marked *; immobilized shFcRn
[15] = molecular target: T1, soluble human FcRn (shFcRn); experiment: SPR (Biacore), immobilized shFcRn, pH 6, fit 'ss'
[16] = molecular target: T1, soluble human FcRn (shFcRn); experiment: SPR (Biacore), immobilized shFcRn, pH 6, 2 site fit

Binder: Ac-TCKWDDGFSCEYV-NH2 (disulfide 2-10 (inferred)) [SYN1162]
- Kd [1]: 97600 nM

B1: SYN3258 (peptide)
peptide: Ac-RYFCTKWKHGWCEEVGTGGGRYFCTKWKHGWCEEVGT-NH2
modifications: disulfide 4-12, 24-32 (inferred)
notes: 37-mer, two SYN1753 units joined by GGG; also called Ac-[SYN1753]-GGG-[SYN1753]-CONH2
- Kd [2]: 3.6 nM

Binder: YMTXKWDDGFSXEYV (N-terminal acetyl; C-terminal amide; Pen (penicillamine) at positions 4 and 12) [SYN1169]
- Kd [1]: 870 nM

Binder: Ac-AGVMHCFWDEEFKCDQGGTGGGK-NH2 (disulfide 6-14 (inferred)) [SYN514]
- binding result [3]: binds

B2: SYN1383 (peptide)
peptide: Ac-VMHCFWDEEFRCEYV-NH2
modifications: disulfide 4-12 (inferred)
notes: Truncated and SAR-optimized analog of SYN514
- Kd [4]: 1100 nM
- Kd [5]: 1100 nM
- Kd Ratio 7.4/6.0 [6]: 34
- Kd [2]: 32 nM
- Kd [7]: 32 nM

Binder: YMTXKWDDGFSCEYV (N-terminal acetyl; C-terminal amide; Pen (penicillamine) at position 4) [SYN1167]
- Kd [1]: 2030 nM

Binder: Ac-CKWDDGFSCEYV-NH2 (disulfide 1-9 (inferred)) [SYN1163]
- binding result [1]: no binding

Binder: Ac-AGRYFCTKWKHGWCEEVGTGGGK-NH2 (disulfide 6-14 (inferred)) [SYN571]
- Kd [8]: 450 nM and 500 nM
- Kd [5]: 13100 nM
- Kd [9]: 500 nM
- Kd [10]: 13100 nM
- Kd Ratio 7.4/6.0 [11]: 29

Binder: Ac-VMHAFWDEEFRAEYV-NH2 [SYN1559]
- binding result [12]: no binding

B3: SYN1327 (peptide)
peptide: RFXTGHFGXLYPC
modifications: N-terminal acetyl; C-terminal amide; Pen (L-penicillamine) at 3; Sar (sarcosine) at 9; NMeLeu (L-N-methylleucine) at 10
- Kd [5]: 170 nM
- Kd [13]: ~25 nM
- Kd [2]: 31 nM

Binder: Ac-VMKCWWDEEFLCRAF-NH2 (disulfide 4-12 (inferred)) [SYN1536]
- Kd [4]: 1100 nM
- Kd Ratio 7.4/6.0 [6]: 61
- Kd [14]: 31 nM
- Kd [7]: 18 nM

Binder: Ac-RYFCTKWKHGWCEEVGT-NH2 (disulfide 4-12 (inferred)) [SYN1753]
- Kd [2]: 500 nM

Binder: Ac-YMTCKWDDGFSCE-NH2 (disulfide 4-12 (inferred)) [SYN1165]
- Kd [1]: 40300 nM

Binder: Ac-YMTCKWDDGFSCEY-NH2 (disulfide 4-12 (inferred)) [SYN1164]
- Kd [1]: 570 nM

Binder: YMTCKWDDGFSXEYV (N-terminal acetyl; C-terminal amide; Pen (penicillamine) at position 12) [SYN1168]
- Kd [1]: 1940 nM

Binder: Ac-YATCKWDDGFSCEYV-NH2 (disulfide 4-12 (inferred)) [SYN1145]
- Kd [15]: 57000 nM

Binder: Ac-YMACKWDDGFSCEYV-NH2 (disulfide 4-12 (inferred)) [SYN1146]
- Kd [4]: 8600 nM
- Kd [16]: 250 nM
- Kd Ratio 7.4/6.0 [6]: 34.4

Binder: Ac-YMTCAWDDGFSCEYV-NH2 (disulfide 4-12 (inferred)) [SYN1147]
- Kd [4]: 27000 nM
- Kd [16]: 470 nM
- Kd Ratio 7.4/6.0 [6]: 56
- Kd [7]: 480 nM

Binder: Ac-YMTCKWDDGASCEYV-NH2 (disulfide 4-12 (inferred)) [SYN1152]
- binding result [1]: no binding

Binder: Ac-YMTCKWDAGFSCEYV-NH2 (disulfide 4-12 (inferred)) [SYN1150]
- Kd [4]: 400 nM
- Kd [16]: 180 nM
- Kd Ratio 7.4/6.0 [6]: 2.2

Binder: Ac-AGYMTCKWDDGFSCEYVGTGGGK-NH2 (disulfide 6-14 (inferred)) [SYN515]
- Kd [4]: 18000 nM
- Kd [16]: 230 nM
- Kd Ratio 7.4/6.0 [6]: 78
